Measured values: the RNAGym collection of RNA variant scans (doi:10.7554/elife.90254)

B1: LINE1-full (parent)
chain: UACGUAGGUGGUUUUCCCCUGAUAGUGCUAAGGGGGCCUGGAAGUUUGGACUGGGCAGAGCUCAACACAGCGUGGCAAAGUGGCUGUGGCUAGACUGCCUCUCUGGAUUCCUCGUCACUCAGCAGGGCAUCUCUGAGAGAAAUGCC

Variants of: B1
Experiment: self-cleavage, relative activity (ratio to wild type); higher = more cleavage; in vitro, sequencing; the parent is a self-cleaving ribozyme

Variant	self-cleavage
U102A A124U	1.46
A67U A140G	0.09
A2C A121G	0.95
U62A U96A	0.04
U52A A57G	0.89
A79G U87A	0.06
G80U G144A	1.57
U112A A121G	1.82
G58A A64G	0.03
U62C C63U	0.07
A69G G82A	0.68
A6G G60U	0.19
U9C A22U	0.89
U23C A24G	1.48
G7A A142G	1.59
G35A G72A	1.18
A6G A43G	1.35
U13G G58A	0.17
U15C C99U	0.55
C98U A121U	0.38
A59U U85A	0.1
A69G U81G	0
U26A C95U	0.17
G10U A59U	0.72

Variant	self-cleavage
A24U U91C	0.45
U87C A142U	0.09
U14C C145U	1.41
C101A A107G	1.57
C18A U73C	1.23
C66U C111U	0.04
U85G A136G	0
A77G A121U	2.74
A31G U96A	0.11
C113A U115C	1.5
A42U A142G	0.88
U9G U108C	1.37
U108G U130A	0.77
U20C U47C	1.57
U39C U91C	0.33
G41U U100G	0.78
U39C G122U	1.53
G4U A69G	0.32
U12G A42C	1.1
U14C C123U	1.05
U29C A124C	1.23
U73C C133U	1.97
A24C A57G	1.17
A65G C133U	0.04

Variant	self-cleavage
C16U U104A	1.12
G105U	1.37
U5G A138G	0.2
U14A U39A	0.8
C71A	0.2
C71U U102C	0.18
U134G A140G	1.03
U46C C101U	2.71
U12A U52A	1.28
A57G A138G	1.12
U14C G88A	0.09
A64C A129U	0.14
U62C G125A	0.06
C103A A117G	1.49
U14C G41U	0.71
U15C U52C	1.14
U112A U130C	1.6
G75A G82U	1.07
U14C A79U	1.97
U5C U134A	0.62
G35U U112C	0.75
A30U A31U	1.3
A43C G97A	0.09
C113U U115C	1

Variant	self-cleavage
U15C A124U	1.32
A107U A138G	1.71
U45C C56A	0.06
A67G C133A	0.41
U14C G105A	1.38
U87C U132A	0.33
U5A U39A	0.8
A2G A78G	1.04
U15G A78G	0
A43U C116U	1.12
A30G G55U	0.79
C16U A124U	0.88
U47C G75C	0.97
U115A A142G	0.9
U13C U81C	1.05
G25A G54U	0.45
U13C U112C	1.35
G32A G86U	0.12
A77C U112C	1.84
U29C U52A	1.16
C71U U115A	0.85
C56U U112A	0.1
U1C U143A	1.35
G34A U96A	0.05

Variant	self-cleavage
U15C U62C	0.09
A22G G70A	0.18
G35U A79G	1.22
C63U U85C	0.08
G55A U134C	0.23
C3U A67G	0
A2G U13C	0.64
A42G U100A	1.28
G35U A142G	1.56
G54U U143C	1.07
U132A U143A	2
U20G U73C	1.39
C19U A136U	1.41
G32A A129G	0.93
C19G A117U	1.69
U20A A140G	1.16
G53C A136G	0.36
C16A A107G	0.87
A43C C113A	1.1
G144U	1.58
U46A A77G	2.14
G106U U108C	1.32
A42G C146U	1.18
G88C	0.11

Variant	self-cleavage
G127C C145U	1.01
A117G A121U	1.86
U12C C101U	1.02
A22C U39C	2.06
G83A A136G	1.05
U23C A124C	1.34
U45A U119A	1.44
U45G A121C	2.14
U132A A138G	1.39
G34A A50U	0.38
G32A A94C	0.04
G4C U130A	1.1
A31C	1.43
U39A U62C	0.05
U14A U134A	0.81
U73C G86A	0.14
A57G U91C	0.4
A43G U143C	1.36
A31G G135A	1.09
U12G U52A	1.22
U104A C131U	1.55
A92U U130C	0.73
G72A A124U	1.22
G36C C146G	1.21

Variant	self-cleavage
U1C A77C	1.02
U12C C98U	0.26
A50G A65U	0.24
U12C C90U	0.04
G105C U132C	1.53
A138G	1.21
G7A U115C	1.21
A64G G137A	0.21
A22U G106A	1.55
U1A A129G	1.47
A140U U143C	1.54
G32C G33U	1.02
A30G A50G	0.64
U15G	1.06
A42G C68U	0.18
A6G A124G	0.38
C17U A59U	0.51
A136C C145A	1.72
A65U U81C	0.19
U14A A78G	0.34
G7U U91A	1.12
U119C G144A	1.26
C90U U96A	0.06
